In the supplement of paper PMC6757056:
± gives the standard deviation of the averaged measurements.

B1: library; a variant is named by its letters at N, in order (parent)
chain: GCUGUCACCGGUGUAUUACCCUAGUGGUCGACCGGUCUGAUGAGUCUNNNNNNAGACGAAACAGC

Key:
[1] = variants of: B1; assay: normalized RNA/DNA level with ligand (relative to sTRSVctl = 100) (log10 (% of sTRSVctl)); ligand: hypoxanthine (xanthine aptamer); higher = less ribozyme self-cleavage, higher mRNA level; details: ligand concentration (+) RNA-Seq: 5 mM, HEK293T, reporter: mCherry (pCS4076), ligand present: yes
Outline: (§1)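 Library plasmids carrying ribozyme switches linked to mCherry, or to eGFP in some ligand experiments, were transfected into HEK293T at 4 µg per 6-well well, with any ligand added 1 h earlier. Seventy-two hours on, total RNA was extracted with EDTA and reverse-transcribed, amplified, barcoded and sequenced. RNA level was RNA over DNA reads normalized to a spiked-in non-cleaving sequence or to the top sequences, then scaled and log-transformed. The top set was 25 sequences, the transform was ×100 and log10, and sequences needed ≥100 DNA reads.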

[2] = variants of: B1; assay: normalized RNA/DNA level without ligand (relative to sTRSVctl = 100) (log10 (% of sTRSVctl)); ligand: hypoxanthine (xanthine aptamer); higher = less ribozyme self-cleavage, higher mRNA level; details: HEK293T, reporter: mCherry (pCS4076), ligand present: no
Outline: as §1

Row | Variant | normalized RNA/DNA level with ligand (log10) [1] | normalized RNA/DNA level without ligand (log10) [2]
1 | GCUGUCACCGGUGUAUUACCCUAGUGGUCGACCGGUCUGAUGAGUCUUCGGAAAGACGAAACAGC | 1.84 ± 0.043 | 1.31 ± 0.017
2 | GCUGUCACCGGUGUAUUACCCUAGUGGUCGACCGGUCUGAUGAGUCUUCGGAUAGACGAAACAGC | 1.86 ± 0.036 | 1.3978 ± 0.00098
3 | GCUGUCACCGGUGUAUUACCCUAGUGGUCGACCGGUCUGAUGAGUCUUCGGACAGACGAAACAGC | 1.981 ± 0.002 | 1.877 ± 0.012
4 | GCUGUCACCGGUGUAUUACCCUAGUGGUCGACCGGUCUGAUGAGUCUGCGGGCAGACGAAACAGC | 1.86 ± 0.046 | 1.58 ± 0.084
5 | GCUGUCACCGGUGUAUUACCCUAGUGGUCGACCGGUCUGAUGAGUCUGCGGCAAGACGAAACAGC | 1.94 ± 0.055 | 1.7 ± 0.052
6 | GCUGUCACCGGUGUAUUACCCUAGUGGUCGACCGGUCUGAUGAGUCUGCGGCUAGACGAAACAGC | 1.971 ± 0.0061 | 1.84 ± 0.04
7 | GCUGUCACCGGUGUAUUACCCUAGUGGUCGACCGGUCUGAUGAGUCUGCGGCCAGACGAAACAGC | 2 ± 0.046 | 1.76 ± 0.076
8 | GCUGUCACCGGUGUAUUACCCUAGUGGUCGACCGGUCUGAUGAGUCUGCGGUUAGACGAAACAGC | 1.919 ± 0.018 | 1.72 ± 0.056
9 | GCUGUCACCGGUGUAUUACCCUAGUGGUCGACCGGUCUGAUGAGUCUUCGGCAAGACGAAACAGC | 1.99 ± 0.056 | 1.7 ± 0.098
10 | GCUGUCACCGGUGUAUUACCCUAGUGGUCGACCGGUCUGAUGAGUCUUCGGCUAGACGAAACAGC | 1.913 ± 0.014 | 1.8 ± 0.063
11 | GCUGUCACCGGUGUAUUACCCUAGUGGUCGACCGGUCUGAUGAGUCUUCGGCCAGACGAAACAGC | 2.04 ± 0.081 | 1.951 ± 0.006
12 | GCUGUCACCGGUGUAUUACCCUAGUGGUCGACCGGUCUGAUGAGUCUUCGGGUAGACGAAACAGC | 1.81 ± 0.075 | 1.55 ± 0.13
13 | GCUGUCACCGGUGUAUUACCCUAGUGGUCGACCGGUCUGAUGAGUCUUCGGGCAGACGAAACAGC | 2.021 ± 0.017 | 1.99 ± 0.0053
14 | GCUGUCACCGGUGUAUUACCCUAGUGGUCGACCGGUCUGAUGAGUCUUCGGGGAGACGAAACAGC | 1.98 ± 0.05 | 1.69 ± 0.035
15 | GCUGUCACCGGUGUAUUACCCUAGUGGUCGACCGGUCUGAUGAGUCUACGCUUAGACGAAACAGC | 1.907 ± 0.016 | 1.5 ± 0.022
16 | GCUGUCACCGGUGUAUUACCCUAGUGGUCGACCGGUCUGAUGAGUCUACGCUCAGACGAAACAGC | 2.02 ± 0.048 | 1.908 ± 0.0022
17 | GCUGUCACCGGUGUAUUACCCUAGUGGUCGACCGGUCUGAUGAGUCUCCGGAUAGACGAAACAGC | 1.9742 ± 0.0018 | 1.777 ± 0.012
18 | GCUGUCACCGGUGUAUUACCCUAGUGGUCGACCGGUCUGAUGAGUCUCCGGGGAGACGAAACAGC | 1.83 ± 0.057 | 1.34 ± 0.084
19 | GCUGUCACCGGUGUAUUACCCUAGUGGUCGACCGGUCUGAUGAGUCUCCGGGUAGACGAAACAGC | 2.04 ± 0.054 | 1.93 ± 0.15
20 | GCUGUCACCGGUGUAUUACCCUAGUGGUCGACCGGUCUGAUGAGUCUGCGCUCAGACGAAACAGC | 1.919 ± 0.015 | 1.64 ± 0.052
21 | GCUGUCACCGGUGUAUUACCCUAGUGGUCGACCGGUCUGAUGAGUCUGCGCUGAGACGAAACAGC | 1.86 ± 0.028 | 1.36 ± 0.03

Row | Variant | normalized RNA/DNA level with ligand (log10) [1] | normalized RNA/DNA level without ligand (log10) [2]
22 | GCUGUCACCGGUGUAUUACCCUAGUGGUCGACCGGUCUGAUGAGUCUGCGCUUAGACGAAACAGC | 1.96 ± 0.065 | 1.76 ± 0.046
23 | GCUGUCACCGGUGUAUUACCCUAGUGGUCGACCGGUCUGAUGAGUCUCCGGCAAGACGAAACAGC | 1.97 ± 0.03 | 1.895 ± 0.0097
24 | GCUGUCACCGGUGUAUUACCCUAGUGGUCGACCGGUCUGAUGAGUCUCCGGCUAGACGAAACAGC | 2.04 ± 0.043 | 1.99 ± 0.024
25 | GCUGUCACCGGUGUAUUACCCUAGUGGUCGACCGGUCUGAUGAGUCUCCGGCGAGACGAAACAGC | 1.94 ± 0.13 | 1.72 ± 0.14
26 | GCUGUCACCGGUGUAUUACCCUAGUGGUCGACCGGUCUGAUGAGUCUCCGGCCAGACGAAACAGC | 1.98 ± 0.029 | 2 ± 0.051
27 | GCUGUCACCGGUGUAUUACCCUAGUGGUCGACCGGUCUGAUGAGUCUCCGUAAAGACGAAACAGC | 1.95 ± 0.098 | 1.67 ± 0.1
28 | GCUGUCACCGGUGUAUUACCCUAGUGGUCGACCGGUCUGAUGAGUCUUCGGUUAGACGAAACAGC | 1.938 ± 0.006 | 1.61 ± 0.04
29 | GCUGUCACCGGUGUAUUACCCUAGUGGUCGACCGGUCUGAUGAGUCUUCGGUCAGACGAAACAGC | 2.034 ± 0.0059 | 1.969 ± 0.012
30 | GCUGUCACCGGUGUAUUACCCUAGUGGUCGACCGGUCUGAUGAGUCUUCGGUGAGACGAAACAGC | 1.9763 ± 0.0017 | 1.67 ± 0.028
31 | GCUGUCACCGGUGUAUUACCCUAGUGGUCGACCGGUCUGAUGAGUCUCCGCUUAGACGAAACAGC | 1.96 ± 0.051 | 1.887 ± 0.0021
32 | GCUGUCACCGGUGUAUUACCCUAGUGGUCGACCGGUCUGAUGAGUCUCCGGUAAGACGAAACAGC | 1.93 ± 0.034 | 1.863 ± 0.0044
33 | GCUGUCACCGGUGUAUUACCCUAGUGGUCGACCGGUCUGAUGAGUCUCCGGUCAGACGAAACAGC | 1.96 ± 0.039 | 1.95 ± 0.029
34 | GCUGUCACCGGUGUAUUACCCUAGUGGUCGACCGGUCUGAUGAGUCUUCGCUUAGACGAAACAGC | 1.984 ± 0.0024 | 1.7 ± 0.035
35 | GCUGUCACCGGUGUAUUACCCUAGUGGUCGACCGGUCUGAUGAGUCUUCGCUCAGACGAAACAGC | 1.98 ± 0.049 | 2.109 ± 0.015
36 | GCUGUCACCGGUGUAUUACCCUAGUGGUCGACCGGUCUGAUGAGUCUUCGCUGAGACGAAACAGC | 1.98 ± 0.069 | 1.803 ± 0.0034
37 | GCUGUCACCGGUGUAUUACCCUAGUGGUCGACCGGUCUGAUGAGUCUACGGUCAGACGAAACAGC | 1.94 ± 0.039 | 1.87 ± 0.0091
38 | GCUGUCACCGGUGUAUUACCCUAGUGGUCGACCGGUCUGAUGAGUCUACGGUGAGACGAAACAGC | 1.8673 ± 0.00056 | 1.24 ± 0.062
39 | GCUGUCACCGGUGUAUUACCCUAGUGGUCGACCGGUCUGAUGAGUCUACGGUUAGACGAAACAGC | 1.84 ± 0.024 | 1.36 ± 0.064
40 | GCUGUCACCGGUGUAUUACCCUAGUGGUCGACCGGUCUGAUGAGUCUACGGCUAGACGAAACAGC | 1.88 ± 0.034 | 1.6 ± 0.016
41 | GCUGUCACCGGUGUAUUACCCUAGUGGUCGACCGGUCUGAUGAGUCUACGGCCAGACGAAACAGC | 1.96 ± 0.02 | 1.88 ± 0.029
42 | GCUGUCACCGGUGUAUUACCCUAGUGGUCGACCGGUCUGAUGAGUCUACGGCAAGACGAAACAGC | 1.902 ± 0.019 | 1.702 ± 0.008
